Data from article PMC10938909.

Legend:
[1] = biological target: secretory chicken FcRY (lacking the membrane-spanning domain, residues 36-1396); assay: competitive binding assay against DIG-IgY on FcRY-immobilized plate, ELISA; conditions: pH 6.0, DIG-IgY tracer (m10) 27.8 nM, value is DIG-IgY still bound (lower = stronger competition), no-competitor level est. 0.17 nM, n = 3, read off a plot
[2] = biological target: secretory chicken FcRY (lacking the membrane-spanning domain, residues 36-1396) (chicken); assay: BLI; BLItz, advanced kinetics; chicken FcRY (400 nM) immobilised on Ni-NTA sensor via His tag; Igs 50-600 nM; pH 5.5 (PBS, 0.05% Tween 20, 20 mM MES, 0.5% BSA); association 120 s, dissociation 120 s; 1:1 fit
[3] = biological target: secretory chicken FcRY (lacking the membrane-spanning domain, residues 36-1396) (chicken); assay: ELISA; graded pH (pH 4.0-7.4), IgY-Fc mutants at 55.6 nM on FcRY held on copper-coated plates; the acidic points (strongest at pH 5.5, pH 5.0-6.0)
[4] = biological target: secretory chicken FcRY (lacking the membrane-spanning domain, residues 36-1396) (chicken)
native quail IgY (qIgY) = assay: bio-layer interferometry (BLItz, advanced kinetics mode); conditions: pH 5.5; PBS (composition not stated); PBS with 20 mM MES at pH 5.5 or 20 mM HEPES at pH 7.4
[5] = biological target: recombinant quail IgY-Fc wild type (WT); assay: as above; conditions: pH 5.5; PBS (composition not stated); PBS with 20 mM MES at pH 5.5 or 20 mM HEPES at pH 7.4
[6] = biological target: recombinant quail IgY-Fc G365A G365A; assay: as above; conditions: pH 5.5; PBS (composition not stated); PBS with 20 mM MES at pH 5.5 or 20 mM HEPES at pH 7.4
[7] = biological target: recombinant quail IgY-Fc Y363A Y363A; assay: as above; conditions: pH 5.5; PBS (composition not stated); PBS with 20 mM MES at pH 5.5 or 20 mM HEPES at pH 7.4
[8] = biological target: secretory chicken FcRY (lacking the membrane-spanning domain, residues 36-1396) (chicken); remark: listed apart in the source
[9] = competitor 55.6 nM, parent: est. 0.080
[10] = competitor 111.1 nM, parent: est. 0.060
[11] = competitor 277.8 nM, parent: est. 0.042

Row | Substance | response [1, 9] [nM] | response [1, 10] [nM] | response [1, 11] [nM] | Kd [2] [nM] | koff [2] [s⁻¹] | kon [2] [M⁻¹ s⁻¹] | further results
1 | recombinant quail wild-type IgY-Fc G365S | 0.086 | 0.066 | 0.05 | – | – | – | –
2 | quail IgY-Fc mutant Y363A (domain or fragment) | – | – | – | 65 | 0.0015 | 23000 | amount bound at pH 5.0-6.0 relative to WT and G365A [3]: 2 fold
3 | quail IgY-Fc mutant G365A (domain or fragment) | – | – | – | 197 | 0.0082 | 42000 | uptake of the intravenously injected DIG-labeled IgY-Fc mutant (20 ug/100 g BW) into quail egg yolks, eggs of 6 d, relative to WT [4]: 2 fold
4 | recombinant quail wild-type IgY-Fc N408A | 0.11 | 0.1 | 0.086 | – | – | – | –
5 | recombinant quail wild-type IgY-Fc G365D | 0.15 | 0.13 | 0.14 | – | – | – | –
6 | native quail IgY (ligand) | – | – | – | 275 | 0.0095 | 35000 | –
7 | secretory FcRY (IgY-Fc receptor, PLA2R homologue) ectodomain | – | – | – | – | – | – | ka (native quail IgY (qIgY)): 35000 M⁻¹ s⁻¹; kd (native quail IgY (qIgY)): 0.0095 s⁻¹; ka [5]: 19000 M⁻¹ s⁻¹; kd [5]: 0.0065 s⁻¹; ka [6]: 42000 M⁻¹ s⁻¹; kd [6]: 0.0082 s⁻¹; ka [7]: 23000 M⁻¹ s⁻¹; kd [7]: 0.0015 s⁻¹
8 | recombinant quail wild-type IgY-Fc (domain or fragment) | – | – | – | 333 | 0.0065 | 19000 | uptake of DIG-labeled WT tracer into egg yolks of laying quail co-injected with the FcRY-neutralizing rabbit antibody Strong Ab (1 mg/100 g BW), relative to control rabbit IgG [8]: 20%; uptake of DIG-labeled WT tracer into egg yolks of laying quail co-injected with the FcRY-neutralizing rabbit antibody Weak Ab (1 mg/100 g BW), relative to control [8]: 60%
